Here are results for 18 molecules from patent publication US20250145684A1 (IMMATICS BIOTECHNOLOGIES, published 2025).

Common to all, as to test: UV peptide exchange ELISA
One assay addresses T1, HLA-B*08:01 (human).
T1 construct: MHC monomer first loaded with a UV-sensitive peptide that is cleaved by UV light and exchanged for the test peptide
The gist of the method: (§1)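 Peptide–MHC complexes formed by UV-mediated exchange of a photocleavable ligand; exchange yield assessed by ELISA on streptavidin-coated plates, samples diluted 100-fold. Bound complexes detected with HRP anti-β2m and TMB at 450 nm against HLA-A*02:01 monomer standards (15–500 ng/ml).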

For another assay, the target named is T2, HLA-B*44:05 (human).
T2 construct: MHC monomer first loaded with a UV-sensitive peptide that is cleaved by UV light and exchanged for the test peptide
In a few lines:
as §1

The next assay addresses T3, HLA-A*02:01 (human).
T3 construct: MHC monomer first loaded with a UV-sensitive peptide that is cleaved by UV light and exchanged for the test peptide
The gist of the method: as §1

SRNPRGFFL [SRNPRGFFL (SEQ ID NO: 95)]: the peptide exchange yield with HLA-B*08:01 is 20 to 50%.
The same measure, in the same setting: to QKPRKKKL [QKPRKKKL (SEQ ID NO: 85)] belongs 20 to 50%.
Still for that read-out and setting: to NVKIRFLE [NVKIRFLE (SEQ ID NO: 99)] belongs 20 to 50%; to LLKGKPRAL [LLKGKPRAL (SEQ ID NO: 9)], 20 to 50%; to EPVNTNVVL [EPVNTNVVL (SEQ ID NO: 98)], 20 to 50%.
On the same count and under the same terms, to TIGLGLHSL [TIGLGLHSL (SEQ ID NO: 90)] belongs 20 to 50%; to MPMQDIKMIL [MPMQDIKMIL (SEQ ID NO: 91)], 20 to 50%; to VLLMGPLHL [VLLMGPLHL (SEQ ID NO: 100)], 20 to 50%.
Regarding RPIHHPLVL [RPIHHPLVL (SEQ ID NO: 86)], the peptide exchange yield with HLA-B*08:01 fell in the range of 20 to 50%.
In turn, RPAGVFEL [RPAGVFEL (SEQ ID NO: 96)] came in with a peptide exchange yield with HLA-B*08:01 of 20 to 50%.
Regarding EEFLTPKKL [EEFLTPKKL (SEQ ID NO: 290)], in the assay with HLA-B*44:05, the binding result was “binds”.
Consider DQLLRHVM [DQLLRHVM (SEQ ID NO: 94)], for which, in the assay with HLA-B*08:01, the peptide exchange yield is 50 to 75%.
Still for that read-out and setting: to QILQHHVL [QILQHHVL (SEQ ID NO: 87)] belongs 50 to 75%.
Same read-out and setting: to VPYTKVQL [VPYTKVQL (SEQ ID NO: 89)] belongs 50 to 75%; to TLKAMVQAW [TLKAMVQAW (SEQ ID NO: 92)], 50 to 75%; to MLLCLSLEL [MLLCLSLEL (SEQ ID NO: 88)], 20 to 50%.
Same read-out and setting: to LMKEKIQEM [LMKEKIQEM (SEQ ID NO: 93)] belongs 50 to 75%.
For the molecule YVYANHFTEA (also called COL6A3-039) [YVYANHFTEA (SEQ ID NO: 291)], the binding result in the assay with HLA-A*02:01 was “binds”.
